The values below come from patent US20180155451A1 (published 2018).

The target in assay [1] is T1, FcγRIIa R (human, UniProt P12318 34-217).
T1 construct: extracellular domain; also called FcgRIIa R; FcγRIIa type R
T1 sequence (looked up): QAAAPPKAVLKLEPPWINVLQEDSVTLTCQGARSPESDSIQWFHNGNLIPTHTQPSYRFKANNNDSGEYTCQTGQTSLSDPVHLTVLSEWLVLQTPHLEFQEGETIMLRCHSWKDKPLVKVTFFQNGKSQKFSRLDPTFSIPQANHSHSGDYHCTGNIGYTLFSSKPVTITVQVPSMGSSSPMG
In words: SPR (Biacore), captured antibody, FcγR analyte; binding relative to GpH7-A5/GpH7-B3/GpL16-k0 = 100.

For assay [2], the target named is T2, FcγRIIb (human, UniProt P31994 43-217).
T2 construct: extracellular domain; also called FcgRIIb
T2 sequence (looked up): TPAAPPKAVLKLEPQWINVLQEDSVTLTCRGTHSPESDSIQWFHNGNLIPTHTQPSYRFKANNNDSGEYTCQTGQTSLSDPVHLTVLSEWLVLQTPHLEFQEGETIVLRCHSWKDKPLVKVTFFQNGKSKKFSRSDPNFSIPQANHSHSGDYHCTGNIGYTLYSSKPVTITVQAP
Described as above.

The target of assay [3] is T1, FcγRIIa R. In words: He/Con_2aR divided by He/Con_2b (FcγRIIa R over FcγRIIb); SPR (Biacore).

B1: GpH7-A5/GpH7-B3 variant A330_12R/GpL16-k0 (antibody, human IgG1, kappa)
heavy 1: not shown
heavy 2: not shown
light: DIVMTQSPLSLPVTPGEPASISCQASESLVHSNRNTYLHWYLQKPGQSPQLLIYKVSNRFSGVPDRFSGSGSGTDFTLKISRVEAEDVGVYYCSQNTHVPPTFGQGTKVEIERTVAAPSVFIFPPSDEQLKSGTASVVCLLNNFYPREAKVQWKVDNALQSGNSQESVTEQDSKDSTYSLSSTLTLSKADYEKHKVYACEVTHQGLSSPVTKSFNRGEC
notes: He Ab; IgG1; mutation in one H chain only
Consider B1, for which, in assay [1], the “He/Con_2aR (IIaR binding)” value is 104 control=100. Moreover, the “He/Con_2b (IIb binding)” value in assay [2] worked out at 84.8 control=100. The “IIaR/IIb (He_2aR/2b)” value in assay [3] is 1.22 ratio.

B2: GpH7-A5/GpH7-B3 variant N325_16H/GpL16-k0 (antibody, human IgG1, kappa)
heavy 1: not shown
heavy 2: not shown
light: DIVMTQSPLSLPVTPGEPASISCQASESLVHSNRNTYLHWYLQKPGQSPQLLIYKVSNRFSGVPDRFSGSGSGTDFTLKISRVEAEDVGVYYCSQNTHVPPTFGQGTKVEIERTVAAPSVFIFPPSDEQLKSGTASVVCLLNNFYPREAKVQWKVDNALQSGNSQESVTEQDSKDSTYSLSSTLTLSKADYEKHKVYACEVTHQGLSSPVTKSFNRGEC
notes: as for B1
For B2, the “He/Con_2aR (IIaR binding)” value in assay [1] was 89 control=100. Further, the “He/Con_2b (IIb binding)” value in assay [2] stood at 70.1 control=100. The “IIaR/IIb (He_2aR/2b)” value in assay [3] is 1.27 ratio.

B3: GpH7-A5/GpH7-B3 variant N325_05P/GpL16-k0 (antibody, human IgG1, kappa)
heavy 1: not shown
heavy 2: not shown
light: DIVMTQSPLSLPVTPGEPASISCQASESLVHSNRNTYLHWYLQKPGQSPQLLIYKVSNRFSGVPDRFSGSGSGTDFTLKISRVEAEDVGVYYCSQNTHVPPTFGQGTKVEIERTVAAPSVFIFPPSDEQLKSGTASVVCLLNNFYPREAKVQWKVDNALQSGNSQESVTEQDSKDSTYSLSSTLTLSKADYEKHKVYACEVTHQGLSSPVTKSFNRGEC
notes: as for B1
For the molecule B3, the “He/Con_2aR (IIaR binding)” value in assay [1] turned out to be 42.2 control=100. For the same molecule, the “He/Con_2b (IIb binding)” value in assay [2] was found to be 26 control=100. For the same molecule, in assay [3], the “IIaR/IIb (He_2aR/2b)” value stood at 1.63 ratio.

B4: GpH7-A5/GpH7-B3 variant N325_02A/GpL16-k0 (antibody, human IgG1, kappa)
heavy 1: not shown
heavy 2: not shown
light: DIVMTQSPLSLPVTPGEPASISCQASESLVHSNRNTYLHWYLQKPGQSPQLLIYKVSNRFSGVPDRFSGSGSGTDFTLKISRVEAEDVGVYYCSQNTHVPPTFGQGTKVEIERTVAAPSVFIFPPSDEQLKSGTASVVCLLNNFYPREAKVQWKVDNALQSGNSQESVTEQDSKDSTYSLSSTLTLSKADYEKHKVYACEVTHQGLSSPVTKSFNRGEC
notes: as for B1
For B4, in assay [1], the “He/Con_2aR (IIaR binding)” value stood at 84.1 control=100. The “He/Con_2b (IIb binding)” value in assay [2] is 64.4 control=100. Moreover, in assay [3], the “IIaR/IIb (He_2aR/2b)” value came out at 1.31 ratio.

B5: GpH7-A5/GpH7-B3 variant A330_08L/GpL16-k0 (antibody, human IgG1, kappa)
heavy 1: not shown
heavy 2: not shown
light: DIVMTQSPLSLPVTPGEPASISCQASESLVHSNRNTYLHWYLQKPGQSPQLLIYKVSNRFSGVPDRFSGSGSGTDFTLKISRVEAEDVGVYYCSQNTHVPPTFGQGTKVEIERTVAAPSVFIFPPSDEQLKSGTASVVCLLNNFYPREAKVQWKVDNALQSGNSQESVTEQDSKDSTYSLSSTLTLSKADYEKHKVYACEVTHQGLSSPVTKSFNRGEC
notes: as for B1
As to B5, the “He/Con_2aR (IIaR binding)” value in assay [1] was 88.8 control=100. The “He/Con_2b (IIb binding)” value in assay [2] was determined as 70.5 control=100. Further, in assay [3], the “IIaR/IIb (He_2aR/2b)” value came to 1.26 ratio.

B6: GpH7-A5/GpH7-B3 variant I336_20W/GpL16-k0 (antibody, human IgG1, kappa)
heavy 1: not shown
heavy 2: not shown
light: DIVMTQSPLSLPVTPGEPASISCQASESLVHSNRNTYLHWYLQKPGQSPQLLIYKVSNRFSGVPDRFSGSGSGTDFTLKISRVEAEDVGVYYCSQNTHVPPTFGQGTKVEIERTVAAPSVFIFPPSDEQLKSGTASVVCLLNNFYPREAKVQWKVDNALQSGNSQESVTEQDSKDSTYSLSSTLTLSKADYEKHKVYACEVTHQGLSSPVTKSFNRGEC
notes: as for B1
B6: the “He/Con_2aR (IIaR binding)” value in assay [1] was 30.3 control=100. The “He/Con_2b (IIb binding)” value in assay [2] was 20.3 control=100. For the same molecule, the “IIaR/IIb (He_2aR/2b)” value in assay [3] turned out to be 1.5 ratio.

B7: GpH7-A5/GpH7-B3 variant A330_03V/GpL16-k0 (antibody, human IgG1, kappa)
heavy 1: not shown
heavy 2: not shown
light: DIVMTQSPLSLPVTPGEPASISCQASESLVHSNRNTYLHWYLQKPGQSPQLLIYKVSNRFSGVPDRFSGSGSGTDFTLKISRVEAEDVGVYYCSQNTHVPPTFGQGTKVEIERTVAAPSVFIFPPSDEQLKSGTASVVCLLNNFYPREAKVQWKVDNALQSGNSQESVTEQDSKDSTYSLSSTLTLSKADYEKHKVYACEVTHQGLSSPVTKSFNRGEC
notes: as for B1
With B7, the “He/Con_2aR (IIaR binding)” value in assay [1] is 74.9 control=100. In addition, the “He/Con_2b (IIb binding)” value in assay [2] was 52.4 control=100. Moreover, the “IIaR/IIb (He_2aR/2b)” value in assay [3] is 1.43 ratio.

B8: GpH7-A5/GpH7-B3 variant A330_07I/GpL16-k0 (antibody, human IgG1, kappa)
heavy 1: not shown
heavy 2: not shown
light: DIVMTQSPLSLPVTPGEPASISCQASESLVHSNRNTYLHWYLQKPGQSPQLLIYKVSNRFSGVPDRFSGSGSGTDFTLKISRVEAEDVGVYYCSQNTHVPPTFGQGTKVEIERTVAAPSVFIFPPSDEQLKSGTASVVCLLNNFYPREAKVQWKVDNALQSGNSQESVTEQDSKDSTYSLSSTLTLSKADYEKHKVYACEVTHQGLSSPVTKSFNRGEC
notes: as for B1
For B8, the “He/Con_2aR (IIaR binding)” value in assay [1] worked out at 85.6 control=100. The “He/Con_2b (IIb binding)” value in assay [2] came out at 67.1 control=100. Further, in assay [3], the “IIaR/IIb (He_2aR/2b)” value is 1.27 ratio.
